Positions of bridges follow the written chain, without caps; N, C: chain ends. No end group written: not given here.
B1: G7-18NATE-P16 (cyclo-(CH2CO-WFEGYDNTFPC-RQIKIWFQNRRMKWKK)) (peptide)
peptide: {CH2CO}-WFEGYDNTFPCRQIKIWFQNRRMKWKK
modifications: thioether N-11
B2: G7-18NATE (cyclo-CH2CO-WFEGYDNTFPC) (peptide)
peptide: {CH2CO}-WFEGYDNTFPC
modifications: thioether N-11
B3: G7-18NATE-P7 (cyclo-(CH2CO-WFEGYDNTFPC-RRMKWKK)) (peptide)
peptide: {CH2CO}-WFEGYDNTFPCRRMKWKK
modifications: thioether N-11

Key:
[1] = cited from earlier work
[2] = tested on: live cells; conditions: fluorescence correlation microscopy on live cells; cited from earlier work
[3] = target: Grb7-SH2 domain (growth factor receptor bound protein 7, residues 415-532) (UniProt Q14451 415-532); test: thermal shift assay
Chain of Grb7-SH2 domain (growth factor receptor bound protein 7, residues 415-532) (Q14451 415-532): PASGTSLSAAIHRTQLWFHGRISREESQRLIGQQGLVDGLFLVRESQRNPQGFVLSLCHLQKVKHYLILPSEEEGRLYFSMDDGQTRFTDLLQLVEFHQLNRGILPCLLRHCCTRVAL

Row | Molecule | change in Tm [3] | also measured
1 | FQNRRMKWKK |  | uptake compared to that of the full-length Penetratin sequence [1]: negligible uptake
2 | NRRMKWKK |  | translocation efficiency [2]: poor translocation efficiency
3 | B1 | 0.74 °C | 
4 | B2 | 0.8 °C | 
5 | B3 | 1.8 °C | 
